T1: rHuman Erythropoietin R/Fc Chimera, CF (R&D Systems Cat#963-ER) (human, UniProt P19235 25-250)
T1 construct: Bought recombinant protein; also called EPO R; EPO R/Fc; Fc part of the bought chimera not given
T1 sequence (looked up): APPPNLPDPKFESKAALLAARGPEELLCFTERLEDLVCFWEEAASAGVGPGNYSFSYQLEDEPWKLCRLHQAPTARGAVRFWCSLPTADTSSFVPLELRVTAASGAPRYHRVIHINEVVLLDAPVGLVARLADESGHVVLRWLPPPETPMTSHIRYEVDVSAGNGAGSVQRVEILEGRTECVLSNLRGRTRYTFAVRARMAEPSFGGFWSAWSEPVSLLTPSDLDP

T2: rHuman Erythropoietin R/Fc Chimera, CF (R&D Systems Cat#963-ER) (human, UniProt P19235 25-250)
T2 construct: Bought recombinant protein; also called EPO R; EPO R/Fc; Fc part of the bought chimera not given
T2 sequence (looked up): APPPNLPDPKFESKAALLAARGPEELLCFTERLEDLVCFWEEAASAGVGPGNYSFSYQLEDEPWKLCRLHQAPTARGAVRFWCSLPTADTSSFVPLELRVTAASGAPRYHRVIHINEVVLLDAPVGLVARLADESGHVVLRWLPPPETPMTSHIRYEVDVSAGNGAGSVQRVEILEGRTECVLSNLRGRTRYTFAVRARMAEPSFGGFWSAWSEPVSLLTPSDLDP


What was measured:
[1] = molecular target: T3, rHuman ErbB2/Fc Chimera, CF (R&D Systems Cat#1129-ER) (human, UniProt P04626 23-652); assay: ECL (MSD) multispot binding assay, antigen spotted on plate, 20 nM Fab;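 further: purified Fab incubated 1 h at 20 °C on antigen-spotted plate, bound Fab revealed with TAG detection antibody, ECL read, antigen signal divided by same-well blank, ratio ≥4 counted as hit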
T3 construct: Bought recombinant protein; also called human epidermal growth factor 2 receptor; Fc part of the bought chimera not given

[2] = molecular target: T4, rHuman EGF R/Fc Chimera, CF (R&D Systems Cat#344-ER) (human, UniProt P00533 25-645); assay: as above
T4 construct: Bought recombinant protein; also called epidermal growth factor receptor; Fc part of the bought chimera not given

[3] = molecular target: T5, rHuman HGF R/c-MET/Fc Chimera, CF (R&D Systems Cat#358-MT/CF) (human, UniProt P08581 25-932); assay: as above
T5 construct: Bought recombinant protein; also called HGF R/Fc; hepatocyte growth factor receptor; Fc part of the bought chimera not given
T5 sequence (P08581 25-932, change not shown): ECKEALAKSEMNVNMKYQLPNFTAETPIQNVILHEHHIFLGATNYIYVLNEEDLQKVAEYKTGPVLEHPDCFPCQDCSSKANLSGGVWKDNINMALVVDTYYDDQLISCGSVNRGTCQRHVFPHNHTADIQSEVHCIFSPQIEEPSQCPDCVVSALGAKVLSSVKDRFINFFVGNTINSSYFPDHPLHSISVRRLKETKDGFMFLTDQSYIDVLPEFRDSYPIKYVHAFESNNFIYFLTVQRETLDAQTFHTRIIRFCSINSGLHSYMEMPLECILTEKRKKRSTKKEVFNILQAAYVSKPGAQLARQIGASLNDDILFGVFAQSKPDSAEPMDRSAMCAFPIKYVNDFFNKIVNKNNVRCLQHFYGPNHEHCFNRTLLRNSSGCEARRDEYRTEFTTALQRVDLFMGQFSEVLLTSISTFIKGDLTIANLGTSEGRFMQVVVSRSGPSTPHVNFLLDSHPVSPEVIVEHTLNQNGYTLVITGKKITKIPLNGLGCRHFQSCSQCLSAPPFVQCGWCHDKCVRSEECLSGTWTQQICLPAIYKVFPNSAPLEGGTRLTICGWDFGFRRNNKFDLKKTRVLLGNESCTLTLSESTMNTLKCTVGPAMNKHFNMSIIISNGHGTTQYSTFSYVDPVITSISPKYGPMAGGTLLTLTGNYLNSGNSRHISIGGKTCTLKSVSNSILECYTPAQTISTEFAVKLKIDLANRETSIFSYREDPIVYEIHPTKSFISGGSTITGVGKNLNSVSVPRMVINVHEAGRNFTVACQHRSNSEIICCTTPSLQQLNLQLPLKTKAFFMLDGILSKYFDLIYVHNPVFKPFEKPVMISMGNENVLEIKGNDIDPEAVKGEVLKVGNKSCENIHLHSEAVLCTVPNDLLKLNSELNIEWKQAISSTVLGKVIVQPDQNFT

[4] = molecular target: T6, rHuman Notch-1/Fc Chimera, CF (R&D Systems Cat#3647-TK) (human, UniProt P46531 19-526); assay: as above
T6 construct: Bought recombinant protein; Fc part of the bought chimera not given

[5] = molecular target: T7, rHuman CD44/Fc Chimera, CF (R&D Systems Cat#3660-CD) (human, UniProt P16070 21-220); assay: as above
T7 construct: Bought recombinant protein; Fc part of the bought chimera not given

[6] = molecular target: T8, rHuman IGF-1 sR, (IGF-1 sR), CF (R&D Systems Cat#391-GR) (human, UniProt P08069 31-932); assay: as above
T8 construct: Bought recombinant soluble receptor; also called insulin-like growth factor-1 soluble receptor

[7] = molecular target: T9, rHuman P-Cadherin/Fc Chimera, CF (R&D Systems Cat#861-PC) (human, UniProt P22223 108-654); assay: as above
T9 construct: Bought recombinant protein; Fc part of the bought chimera not given

[8] = molecular target: T1, rHuman Erythropoietin R/Fc Chimera, CF …; assay: as above
[9] = molecular target: T10, Recombinant Human DLL4 (R&D Systems Cat#1506-D4/CF) (human, UniProt Q9NR61 27-524); assay: as above
T10 construct: Bought recombinant protein; also called delta-like protein 4; rHuman DLL4

[10] = molecular target: T11, rHuman CD44/Fc Chimera, CF (R&D Systems Cat#3660-CD) (human, UniProt P16070 21-220); assay: ECL multispot (MSD) assay, antigen spotted on plate, 20 nM Fab;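 further: purified Fab bound to plate-spotted antigen for 1 h at 20 °C, labelled detection antibody added, ratio of antigen ECL signal to same-well blank, ratio ≥4 counted as binder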
T11 construct: Bought recombinant protein; Fc part of the bought chimera not given

[11] = molecular target: T12, rHuman IGF-1 sR, CF (R&D Systems Cat#391-GR) (human, UniProt P08069 31-932); assay: as above
T12 construct: Bought soluble receptor; also called insulin-like growth factor-1 soluble receptor

[12] = molecular target: T13, rHuman P-Cadherin/Fc Chimera, CF (R&D Systems Cat#861-PC) (human, UniProt P22223 108-654); assay: as above
T13 construct: Bought recombinant protein; Fc part of the bought chimera not given

[13] = molecular target: T2, rHuman Erythropoietin R/Fc Chimera, CF …; assay: as above
[14] = molecular target: T14, Recombinant Human DLL4 (R&D Systems Cat#1506-D4/CF) (human, UniProt Q9NR61 27-524); assay: as above
T14 construct: Bought recombinant protein; also called delta-like protein 4; rHuman DLL4

[15] = molecular target: T15, rHuman ErbB2/Fc Chimera, CF (R&D Systems Cat#1129-ER) (human, UniProt P04626 23-652); assay: as above
T15 construct: Bought recombinant protein; also called human epidermal growth factor 2 receptor; Fc part of the bought chimera not given

[16] = molecular target: T16, rHuman EGF R/Fc Chimera, CF (R&D Systems Cat#344-ER) (human, UniProt P00533 25-645); assay: as above
T16 construct: Bought recombinant protein; also called epidermal growth factor receptor; Fc part of the bought chimera not given

[17] = molecular target: T17, rHuman Notch-1/Fc Chimera, CF (R&D Systems Cat#3647-TK) (human, UniProt P46531 19-526); assay: as above
T17 construct: Bought recombinant protein; Fc part of the bought chimera not given

Binder | ECL signal/blank ratio [1] | ECL signal/blank ratio [2] | ECL signal/blank ratio [3] | ECL signal/blank ratio [4] | ECL signal/blank ratio [5] | ECL signal/blank ratio [6] | ECL signal/blank ratio [7] | ECL signal/blank ratio [8] | ECL signal/blank ratio [9] | ECL signal/blank ratio (read-out not given) [10] | ECL signal/blank ratio (read-out not given) [11] | ECL signal/blank ratio (read-out not given) [12] | ECL signal/blank ratio (read-out not given) [13] | ECL signal/blank ratio (read-out not given) [14] | ECL signal/blank ratio (read-out not given) [15] | ECL signal/blank ratio (read-out not given) [16] | ECL signal/blank ratio (read-out not given) [17]
Fab VH3-23_IGHD2-21*01>3_IGHJ6*01 H100E/S108P/Y113G T58A & V2-13_IGLJ2*01 (Fab, V domains shown, Tested as a Fab made in E. coli; also called EPG T58A) VH: EVQLLESGGGLVQPGGSLRLSCAASGFTFSSYAMSWVRQAPGKGLEWVSSISGSGGSAYYADSVKGRFTISRDNSKNTLYLQMNSLRAEDTAVYYCAKEEIVVVIAIPYYYYGYGMDVWGQGTLVTVSS VL: SSELTQDPAVSVALGQTVRITCQGDSLRSYYASWYQQKPGQAPVLVIYGKNNRPSGIPDRFSGSSSGNTASLTITGAQAEDEADYYCNSRDSSGNHLVVFGGGTKLTVL |  |  |  |  |  |  |  |  |  | 1.5 | 1.2 | 36.9 | 158 | 2.3 | 15.9 | 9.6 | 
Fab VH3-23_IGHD2-21*01>3_IGHJ6*01 H100E/S108P/Y113G A61T & V2-13_IGLJ2*01 (Fab, V domains shown, Tested as a Fab made in E. coli; also called EPG A61T) VH: EVQLLESGGGLVQPGGSLRLSCAASGFTFSSYAMSWVRQAPGKGLEWVSSISGSGGSTYYTDSVKGRFTISRDNSKNTLYLQMNSLRAEDTAVYYCAKEEIVVVIAIPYYYYGYGMDVWGQGTLVTVSS VL: SSELTQDPAVSVALGQTVRITCQGDSLRSYYASWYQQKPGQAPVLVIYGKNNRPSGIPDRFSGSSSGNTASLTITGAQAEDEADYYCNSRDSSGNHLVVFGGGTKLTVL |  |  |  |  |  |  |  |  |  | 2 | 1.6 | 20.9 |  | 2.6 | 11.2 | 7.1 | 2.9
Fab VH3-23_IGHD2-21*01>3_IGHJ6*01 H100E/S108P/Y113G Y60A & V2-13_IGLJ2*01 (Fab, V domains shown, Tested as a Fab made in E. coli; also called EPG Y60A) VH: EVQLLESGGGLVQPGGSLRLSCAASGFTFSSYAMSWVRQAPGKGLEWVSSISGSGGSTYAADSVKGRFTISRDNSKNTLYLQMNSLRAEDTAVYYCAKEEIVVVIAIPYYYYGYGMDVWGQGTLVTVSS VL: SSELTQDPAVSVALGQTVRITCQGDSLRSYYASWYQQKPGQAPVLVIYGKNNRPSGIPDRFSGSSSGNTASLTITGAQAEDEADYYCNSRDSSGNHLVVFGGGTKLTVL |  |  |  |  |  |  |  |  |  | 1.5 | 1.2 | 25.3 |  | 2.3 | 11.5 | 6.2 | 2.6
Fab VH3-23_IGHD2-21*01>3_IGHJ6*01 H100E/S108P/Y113G D62A & V2-13_IGLJ2*01 (Fab, V domains shown, Tested as a Fab made in E. coli; also called EPG D62A) VH: EVQLLESGGGLVQPGGSLRLSCAASGFTFSSYAMSWVRQAPGKGLEWVSSISGSGGSTYYAASVKGRFTISRDNSKNTLYLQMNSLRAEDTAVYYCAKEEIVVVIAIPYYYYGYGMDVWGQGTLVTVSS VL: SSELTQDPAVSVALGQTVRITCQGDSLRSYYASWYQQKPGQAPVLVIYGKNNRPSGIPDRFSGSSSGNTASLTITGAQAEDEADYYCNSRDSSGNHLVVFGGGTKLTVL |  |  |  |  |  |  |  |  |  | 2 | 1.4 | 45.8 | 244 | 2.4 | 21.7 | 11.6 | 

Other lines, results leading:

ECL signal/blank ratio [1] | ECL signal/blank ratio [2] | ECL signal/blank ratio [3] | ECL signal/blank ratio [4] | ECL signal/blank ratio [5] | ECL signal/blank ratio [6] | ECL signal/blank ratio [7] | ECL signal/blank ratio [8] | ECL signal/blank ratio [9] | ECL signal/blank ratio (read-out not given) [10] | ECL signal/blank ratio (read-out not given) [11] | ECL signal/blank ratio (read-out not given) [12] | ECL signal/blank ratio (read-out not given) [13] | ECL signal/blank ratio (read-out not given) [14] | ECL signal/blank ratio (read-out not given) [15] | ECL signal/blank ratio (read-out not given) [16] | ECL signal/blank ratio (read-out not given) [17] | Binder
1.3 | 1.5 | 1 | 1.6 | 1 | 1.4 | 0.8 | 2 | 1.3 |  |  |  |  |  |  |  |  | Fab VH3-23_IGHD2-21*01>3_IGHJ6*01 H100E/S108P/Y113G/Y110G & V2-13_IGLJ2*01 (Fab, V domains shown, Fab made in E. coli: VH joined to CH1 (with His and Flag tags, plasmid A) and VL to lambda CL (plasmid E); also called EPG Y110G) VH: not shown VL: SSELTQDPAVSVALGQTVRITCQGDSLRSYYASWYQQKPGQAPVLVIYGKNNRPSGIPDRFSGSSSGNTASLTITGAQAEDEADYYCNSRDSSGNHLVVFGGGTKLTVL
1.5 | 1.4 | 2.2 | 1.5 | 1.1 | 1.4 | 2.3 |  | 1.5 |  |  |  |  |  |  |  |  | Fab VH3-23_IGHD2-21*01>3_IGHJ6*01 H100E/S108P/Y113G/Y111E & V2-13_IGLJ2*01 (Fab, V domains shown, Fab made in E. coli: VH joined to CH1 (with His and Flag tags, plasmid A) and VL to lambda CL (plasmid E); also called EPG Y111E) VH: not shown VL: SSELTQDPAVSVALGQTVRITCQGDSLRSYYASWYQQKPGQAPVLVIYGKNNRPSGIPDRFSGSSSGNTASLTITGAQAEDEADYYCNSRDSSGNHLVVFGGGTKLTVL
1.6 | 1.5 | 1.7 | 1.6 | 1.3 | 1.2 | 1.3 | 1.9 | 1.4 |  |  |  |  |  |  |  |  | Fab VH3-23_IGHD2-21*01>3_IGHJ6*01 H100E/S108P/Y113G/Y111P & V2-13_IGLJ2*01 (Fab, V domains shown, Fab made in E. coli: VH joined to CH1 (with His and Flag tags, plasmid A) and VL to lambda CL (plasmid E); also called EPG Y111P) VH: not shown VL: SSELTQDPAVSVALGQTVRITCQGDSLRSYYASWYQQKPGQAPVLVIYGKNNRPSGIPDRFSGSSSGNTASLTITGAQAEDEADYYCNSRDSSGNHLVVFGGGTKLTVL

Source: patent publication US20120316071A1 (published 2012)
